Where a chain is given by its changes, count along the chain named.
Key:
purified vimentin-His6 = biological target: T1, purified vimentin-His6 (Homo sapiens, UniProt P08670); experiment: ELISA; solid-phase phage ELISA of 47 single clones after two cycles of biopanning against full-length vimentin; conditions: one partner purified
T1 construct: vimentin, full length; Antigen of immunisation, biopanning and phage ELISA; details in the Supplementary methods; also called recombinant vimentin; full-length vimentin
T1 sequence (P08670 whole entry): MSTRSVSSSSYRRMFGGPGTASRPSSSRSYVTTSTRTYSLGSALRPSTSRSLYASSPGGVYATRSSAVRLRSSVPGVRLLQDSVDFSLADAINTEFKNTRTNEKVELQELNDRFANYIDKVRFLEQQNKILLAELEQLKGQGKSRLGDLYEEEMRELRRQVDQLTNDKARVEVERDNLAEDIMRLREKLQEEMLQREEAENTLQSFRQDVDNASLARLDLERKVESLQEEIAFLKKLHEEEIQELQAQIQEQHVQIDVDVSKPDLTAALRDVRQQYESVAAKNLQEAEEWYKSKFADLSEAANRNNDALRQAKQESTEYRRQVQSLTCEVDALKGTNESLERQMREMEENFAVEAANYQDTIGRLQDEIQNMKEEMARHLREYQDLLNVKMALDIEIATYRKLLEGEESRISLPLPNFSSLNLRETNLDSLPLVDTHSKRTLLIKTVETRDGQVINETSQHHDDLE

[1] = biological target: endogenous vimentin (human cell lines) (human (endogenous in HeLa, HEK293T, A549, MDA-MB-231)) (UniProt P08670)
endogenous vimentin (human cell lines) (human (endogenous in HeLa, HEK293T, A549, MDA-MB-231)), sequence (P08670 whole entry): as above

[2] = biological target: T2, endogenous vimentin (MDCK cells) (Canis lupus familiaris, UniProt A0A8C0N8E3); experiment: pull-down; nanobodies covalently coupled to agarose (NHS-Sepharose) beads incubated with soluble protein fractions of cell lines (HeLa, MDCK, A549 or HEK293T), 16 h at 4 °C; immunoblot with anti-vimentin IgG; conditions: one partner purified
T2 construct: vimentin, endogenous in MDCK cells; source: endogenous, MDCK lysate; fixed MDCK cells
T2 sequence (A0A8C0N8E3 whole entry): as the sequence (P08670 whole entry) above, with A21G, S27T, V60A, N201S, E239D, E251D, V258M, T317N, S412A counted along it

[3] = biological target: T3, vimentin rod domain fused to GFP (Homo sapiens, UniProt P08670); experiment: pull-down; immobilized nanobodies incubated with lysates of HEK293T cells transfected with GFP fusions of vimentin or its domains; immunoblot with anti-GFP antibody; conditions: one partner purified
T3 construct: vimentin central helical rod domain, aa 96-407; also called central helical rod domain (aa 96-407); source: HEK293T, transfected, in lysate
T3 sequence (P08670 96-407): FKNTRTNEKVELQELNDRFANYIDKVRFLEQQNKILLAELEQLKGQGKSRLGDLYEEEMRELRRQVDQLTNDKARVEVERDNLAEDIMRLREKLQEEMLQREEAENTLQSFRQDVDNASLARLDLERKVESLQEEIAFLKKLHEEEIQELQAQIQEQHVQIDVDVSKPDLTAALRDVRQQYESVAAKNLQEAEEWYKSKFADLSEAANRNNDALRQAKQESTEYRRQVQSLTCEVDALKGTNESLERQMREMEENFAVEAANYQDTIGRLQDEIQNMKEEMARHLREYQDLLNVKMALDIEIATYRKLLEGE

[4] = biological target: T2, endogenous vimentin (MDCK cells); experiment: immunostaining of cells or tissue; fixed (4% PFA), permeabilised MDCK, HeLa and MDA-MB-231 cells; ATTO488-labeled nanobodies 10 ug/ml in 3% BSA in PBS, 16 h at 4 °C; compared or co-stained with an anti-vimentin IgG; conditions: one partner purified
GFP-labeled vimentin = biological target: T4, GFP-labeled vimentin (Homo sapiens, UniProt P08670); experiment: BLI; fiber optic sensors with immobilized VB3 and VB6; serial dilutions of the soluble protein fraction of HEK293T cells comprising GFP-VIM or GFP; conditions: one partner purified
T4 construct: vimentin, full length; Expression constructs are described in the Supplementary methods; also called GFP-VIM; eGFP-Vimentin; source: HEK293T, transfected, in lysate (soluble protein fraction)
T4 sequence (P08670 whole entry): as the sequence (P08670 whole entry) above

B1: VC4, phage-displayed clone (VHH)
VHH: QVQLVESGGGLVQPGGSLRLSCLASGFSFGSYRMHWVRQAPGKGLEWVSGISSGGGTTYYADSVKGRFTISRDNAKNMLYLQMNNLQPEDTAVYYCLGGDWADWGQGTQVTVSS
notes: VH domain derived from a conventional IgG by its hallmark residues
binding result (purified vimentin-His6): binds

B2: VE3, phage-displayed clone (VHH)
VHH: QVQLVESGGGLVQPGGSLRLSCAASGSTFRIRTMGWYRQAPGKQRELVAVSTNSGGSVNYADSVKGRFTISIDSVKKTTDLQMNSLKPEDTAVYYCNAYDSDYLDYYGQGTQVTVSS
notes: derived from a heavy-chain-only antibody
binding result (purified vimentin-His6): binds

B3: VB3 nanobody (VHH)
VHH: QVQLVESGGGSVQAGDSLRLSCAASGNTFSIKVMGWYRQAPGKQRELVAVSTNSGASVNYANSVKGRFTISIDSVKKTTYLQMNSLKPEDTAVYFCNAYDGRYEDYYGQGTQVTVSS
notes: By its hallmark residues derived from a heavy-chain-only antibody; Used immobilised on BLI sensors and covalently coupled to NHS-Sepharose; Construct and purification details are in the Supplementary methods; also called Nb VB3; source: E. coli, recombinantly expressed and purified
FRAP in HeLa cells: half time of fluorescence recovery of the chromobody [1]: 4.3 s | FRAP in HeLa cells: total fluorescence recovery of the chromobody in the photobleached region [1]: 58.4% | binding result [2]: binds | binding result [3]: binds

B4: VF6, phage-displayed clone (VHH)
VHH: B3 VHH with Q1D, S11L, Q13E, D16G, N27R, I31P, K32Y, K43N
notes: as for B2
binding result (purified vimentin-His6): binds

B5: VG1, phage-displayed clone (VHH)
VHH: B3 VHH with Q1D, S11L, D16G, R19K, A23K, N27S, F29Y, K32H, M34Y
notes: as for B2
binding result (purified vimentin-His6): binds

B6: VH3, phage-displayed clone (VHH)
VHH: QVQLVESGGGLAQPGGSLRLSCAASGFTFSSYAMSWVRQAPGKGLEWVSGITSGGSSTYYASSVKGRFTISRDNTKNTLYLQMDNLKSDDTAVYYCAKAWGSASSSRGQGTQVTVSS
notes: as for B1
binding result (purified vimentin-His6): binds

B7: VG4, phage-displayed clone (VHH)
VHH: QVQLVESGGGLVQPGGSLRLSCVASGFTFSDYWMYWVRQAPGKGLEWVSGISPGGTTTYADSVKGRFTTSRDNTRNTLYLQMNELKPEDTAVYYCAKDLNWVDSDDYWGRGTQVTVSS
notes: as for B1
binding result (purified vimentin-His6): binds

B8: VB6 nanobody coupled to ATTO488 (VHH)
VHH: QVQLVESGGGLVQSGGSLTLTCAASGFTFSAASMRWVRQVPGKGLEWVATIDGTGANSYYSESAKGRFTISRDNARNTLRLQMNNLKPDDTAVYYCANFGRNYWGKGTQVTVSS
notes: also called VB6_(ATTO488); source: E. coli, purified, chemically coupled to ATTO488 NHS-ester
binding result [4]: binds

B9: VB6 nanobody (VHH)
VHH: B8 VHH
notes: Single-domain antibody; Used immobilised on BLI sensors and covalently coupled to NHS-Sepharose; Construct details are in the Supplementary methods; also called Nb VB6; source: E. coli, recombinantly expressed and purified
Kd (GFP-labeled vimentin): 37 nM | koff (GFP-labeled vimentin): 0.0176 s⁻¹ | kon (GFP-labeled vimentin): 475000 M⁻¹ s⁻¹

From paper PMC4544033, “Real-time analysis of epithelial-mesenchymal transition using fluorescent single-domain antibodies” (Scientific Reports, 2015)
